Tests used:
[1] = test system: platelet-derived biomarkers; experiment: ASSENT-2 platelet substudy: ELISA of platelet-derived biomarkers in plasma of AMI patients; format: in vivo, human
Description: Forty-one patients with ST-segment elevation AMI enrolled in a single ASSENT-2 site (Rashid Hospital, Dubai, United Arab Emirates) were studied. The inclusion and exclusion criteria of ASSENT-2 have been previously reported ([no authors listed] (1999) Lancet 354:716-722). Briefly, patients included in the trial were between 18 and 70 years of age and were seen within 6 hours of symptom onset with >30 minutes of continuous symptoms. […] After informed consent was obtained, 7 serum samples were drawn. Samples were collected at baseline and at 30-minute intervals during a 180-minute period. Within 15 minutes of sample acquisition, plasma was separated by centrifugation at 800 g for 10 minutes, aspirated, placed in vials, and snapped frozen at −20° C.
Enzyme-linked immunosorbent assay (ELISA) was used according to standard sandwich techniques for CD 31 (sPECAM-1), sVACAM-1, sP-selectin, (R&D Systems Inc. Minneapolis, Minn.), beta-thromboglobulin, Asserachrom® (Diagnostica Stago Inc., Parsippany, N.J.), platelet factor 4 Asserachrom®, thromboxane, and prostacyclin (Cayman Chemical Co., MI). Each sample was measured in duplicate, and the overall intra-assay coefficient of variation was between 3.1%±0.4% and 7.6%±1.0%, with a plasma recovery rate between 89.7% and 98.7%.
(§1) For all comparisons, statistical analyses were done by using repeated measures ANOVA. Post hoc comparison was performed by use of the Bonferroni t-test to identify specific differences in platelet aggregation and receptor expression between patients treated with TNK and t-PA, and controls. The Mann-Whitney U test was used to analyze non-parametric data. Normally distributed data were expressed as mean±SE, and skewed data as median (range). Probability values of P<0.05 were regarded as statistically significant. Linear regression analysis was applied to normally distributed data for all study participants by using the Statview 4.1 program for analysis.
In the ASSENT-2 Platelet Substudy, 21 of the 41 patients enrolled received TNK (30-50 mg), while the remaining 20 received t-PA (40-85 mg). There were no substantial differences in baseline characteristics for the AMI patients.

[2] = test system: platelets; experiment: in vitro comparison of TNK versus t-PA on platelet activation and surface receptor expression (15 parameters); format: cell-based, human; conditions: TNK 12 μg/mL, t-PA 4 μg/mL, 30 minutes
Description: (§2) Blood samples for the in vitro study were obtained from 9 healthy volunteers. None of the subjects smoked or had hypertension, diabetes, or an abnormal hematocrit. None had received aspirin or any other antiplatelet drugs. All subjects underwent blood sampling after at least 30 minutes of rest and 2 or more hours of fasting. Blood was drawn from an antecubital vein between 8 am and 10 am in order to avoid any diurnal influence. A 21-gauge butterfly needle was used to draw blood into a tube containing 3.8% sodium citrate (1:9 volume); the first 1.5 mL of free running blood was discarded. One tube was kept as an internal control. A second tube was incubated with tenecteplase (TNK) for 30 minutes at room temperature in order to achieve a final concentration of 12 μg/mL. […]
For the platelet aggregation (PA) studies, platelet-rich plasma (PRP) was first isolated. […] Platelet counts were determined for each PRP sample with a Coulter Counter ZM (Coulter Co., Hialeah, Fla.). […] Platelet aggregation was determined by using a 4 channel Chrono-log Lumi-Aggregometer (model 560-Ca) and expressed as the maximum percentage of light transmittance change (% max) from the baseline at the end of the recording time. […] Platelet aggregability curves were recorded for 6 minutes and analyzed according to internationally established standards (see, e.g., Ruggeri, Z. M. (1994) Semin. Hemat. 31:229-239). […]

[3] = test system: platelets; experiment: in vitro whole blood aggregometry (impedance); format: cell-based, human; conditions: 5 μg/mL collagen; TNK 12 μg/mL, t-PA 4 μg/mL
Description: as §2
Whole blood samples were prepared as follows: whole blood citrate mixture was diluted 1:1 with 0.5 mL Tyrode's buffer solution, then swirled gently. […] Platelet aggregability was expressed as the change in electrical impedance and is expressed in ohms. Aggregation curves were recorded for 6 minutes and analyzed by use of Aggrolink® software (Chrono-log Corporation).
(§3) For all comparisons, statistical analyses were done by using repeated measures ANOVA. […] Normally distributed data were expressed as mean±SE, and skewed data as median (range). […]

[4] = test system: platelets; experiment: PFA-100 platelet function analyzer, closure time; format: cell-based, human; conditions: TNK 12 μg/mL, t-PA 4 μg/mL
Description: (§4) Blood samples for the in vitro study were obtained from 9 healthy volunteers. None of the subjects smoked or had hypertension, diabetes, or an abnormal hematocrit. None had received aspirin or any other antiplatelet drugs. All subjects underwent blood sampling after at least 30 minutes of rest and 2 or more hours of fasting. Blood was drawn from an antecubital vein between 8 am and 10 am in order to avoid any diurnal influence. A 21-gauge butterfly needle was used to draw blood into a tube containing 3.8% sodium citrate (1:9 volume); the first 1.5 mL of free running blood was discarded. One tube was kept as an internal control. A second tube was incubated with tenecteplase (TNK) for 30 minutes at room temperature in order to achieve a final concentration of 12 μg/mL. The third tube was similarly incubated with alteplase (t-PA) to achieve a concentration of 4 μg/mL. The concentrations of TNK and t-PA that were chosen approximated conventional plasma levels observed in patients receiving TNK and t-PA bolus (30 mg, and 15 mg, respectively; data on file, Genentech, Inc., South San Francisco, Calif.). Fresh solutions of TNK and t-PA were prepared in Dulbecco's phosphate buffered saline (DPBS) ex tempore on the morning of the platelet studies.
The PFA-100™ (Dade Behring, Deerfield, Ill.) is a high shear-inducing platelet function analyzer that simulates primary hemostasis after injury to a small vessel under flow conditions (see, e.g. Kundu, S. K. et al. (1996) Clin. Appl. Thromb. Hemost. 2:241-249). The device provides a constant negative pressure that aspirates a whole blood-citrate mixture, which comes into contact with a collagen-coated membrane and then passes through an aperture. The time required to obtain occlusion of the aperture is digitally recorded and is a measure of shear-induced platelet aggregation.
as §3

[5] = test system: platelets; experiment: in vitro whole blood flow cytometry of platelet receptors and platelet-monocyte aggregates; format: cell-based, human; conditions: TNK 12 μg/mL, t-PA 4 μg/mL
Description: as §4
The surface expression of platelet receptors was determined by flow cytometry by using the following monoclonal antibodies: CD 41 (glycoprotein [GP] IIb/IIIa, α IIbβ3) CD 42b (GP Ib), CD 62p (P-selectin), CD 51/CD 61 (αvβ3, or vitronectin receptor), CD 31 (platelet endothelial cell adhesion molecule [PECAM]-1), CD 107a (LAMP-1), CD 107b (LAMP-2), CD 63 (LIMP or LAMP-3), and CD 151 (PETA-3) (PharMingen, San Diego, Calif.). Platelet-leukocyte interactions were assessed by using dual antibodies for a pan-platelet marker (CD 41), together with CD 14, a monocyte/macrophage marker. The blood-citrate mixture (50 μl) was diluted with 450 μl Tris buffered saline (TBS) (10 mmol/L Tris, 0.15 mol/L sodium chloride) and mixed by gently inverting an Eppendorf tube 2 times. The corresponding antibody was then added (5 μl) and incubated at 4° C. for 30 minutes. After incubation, 400 μl of 2% buffered paraformaldehyde was added for fixation. The samples were analyzed on a Becton Dickinson FACScan flow cytometer set up to measure fluorescent light scatter, as previously described. All parameters were collected by using 4-decade logarithmic amplification. The data were collected in list mode files and then analyzed. P-selectin was expressed as percent positive cells. Other antigens were expressed as log mean fluorescence intensity.
as §1

[6] = test system: platelets; experiment: rapid platelet-function assay (Ultegra); format: cell-based, human; conditions: TNK 12 μg/mL, t-PA 4 μg/mL
Description: as §4
With rapid platelet-function assay (RPFA (Ultegra®); Accumetrics, Inc., San Diego, Calif.), polystyrene beads coated with fibrinogen are placed in a cartridge along with a peptide that activates the thrombin receptor. A whole blood citrate mixture is added to the cartridge, and agglutination between platelets and coated beads is recorded. The data mirror turbidometric platelet aggregation and reflect the degree of platelet glycoprotein IIb/IIIa blockade.
For all comparisons, statistical analyses were done by using repeated measures ANOVA. Post hoc comparison was performed by use of the Bonferroni t-test to identify specific differences in platelet aggregation and receptor expression between patients treated with TNK and t-PA, and controls. […] Normally distributed data were expressed as mean±SE, and skewed data as median (range). […]

B1: TNK: form of tissue plasminogen activator, thrombolytic agent (Genentech) (protein, UniProt P00750 36-562, looked up, variant T103N N117Q K296A H297A R298A R299A)
Tissue-type plasminogen …: SYQVICRDEKTQMIYQQHQSWLRPVLRSNRVEYCWCNSGRAQCHSVPVKSCSEPRCFNGGTCQQALYFSDFVCQCPEGFAGKCCEIDTRATCYEDQGISYRGNWSTAESGAECTNWQSSALAQKPYSGRRPDAIRLGLGNHNYCRNPDRDSKPWCYVFKAGKYSSEFCSTPACSEGNSDCYFGNGSAYRGTHSLTESGASCLPWNSMILIGKVYTAQNPSAQALGLGKHNYCRNPDGDAKPWCHVLKNRRLTWEYCDVPSCSTCGLRQYSQPQFRIKGGLFADIASHPWQAAIFAAAAASPGERFLCGGILISSCWILSAAHCFQERFPPHHLTVILGRTYRVVPGEEEQKFEVEKYIVHKEFDDDTYDNDIALLQLKSDSSRCAQESSVVRTVCLPPADLQLPDWTECELSGYGKHEALSPFYSERLKEAHVRLYPSSRCTSQHLLNRTVTDNMLCAGDTRSGGPQANLHDACQGDSGGPLVCLNDGRMTLVGIISWGLGCGQKDVPGVYTKVTNYLDWIRDNMRP
P-selectin plasma concentrations ([1]; 30-60 minutes): immediate increase
P-selectin plasma concentrations ([1]; 120-150 minutes): significant decrease
P-selectin plasma concentrations ([1]; 180 minutes): rebound
plasma levels of PECAM-1 ([1]; AMI patients after thrombolysis): significantly inhibited
release of substances from platelets (plasma biomarkers) ([1]; TNK 30-50 mg, t-PA 40-85 mg, 180-minute period): decreased release
vascular cell adhesion molecule-1 (VCAM-1) release ([1]; after 90 minutes): inhibited significantly
inhibition of thromboxane formation, TNK versus t-PA ([1]; human, in vivo): significantly stronger
pattern of prostacyclin release, between the agents ([1]; human, in vivo): very similar
plasma concentrations of prostacyclin ([1]; human, in vivo): significant and early decrease
plasma concentrations of thromboxane ([1]; human, in vivo): significant and early decrease
prevention of platelet activation, TNK versus t-PA group ([1]; human, in vivo): stronger prevention of platelet activation
platelet function, 10 of 15 parameters, compared with baseline DPBS values [2]: diminished platelet function
whole blood aggregometry, TNK versus t-PA samples [3]: statistically significant decrease
closure time (PFA-100) compared with DPBS [4]: prolongation
closure time with the ADP/collagen cartridge (PFA-100), TNK versus t-PA samples [4]: extension
CD 151 expression, TNK versus t-PA samples [5]: Significant reduction
PECAM-1 expression, TNK versus t-PA samples [5]: Significant reduction
expression of PECAM-1 compared with saline-treated samples [5]: trend toward diminished expression
expression of glycoprotein IIb/IIIa compared with saline-treated samples [5]: reduced expression
formation of platelet-monocyte aggregates compared with saline-treated samples [5]: trend toward diminished
formation of platelet-monocyte aggregates, TNK versus t-PA [5]: lower
glycoprotein IIb/IIIa expression, TNK versus t-PA samples [5]: Significant reduction
vitronectin receptor expression, TNK versus t-PA samples [5]: Significant reduction
platelet activation units (Ultegra) compared with DPBS [6]: reduction
platelet activation with the Ultegra analyzer, TNK versus t-PA samples [6]: statistically significant decrease
